Experimental data as given in US20250326823A1.

Experiments:
Assay in all cases: cell-based or functional assay
[1] = target: SARS-CoV-2 spike (S) protein, D614G (SARS-CoV-2) (UniProt P0DTC2)
[2] = target: SARS-CoV-2 spike (S) protein, variant B.1.1.7 (SARS-CoV-2)
[3] = target: SARS-CoV-2 spike (S) protein, variant B.1.351 (SARS-CoV-2)
[4] = target: SARS-CoV-2 spike (S) protein, variant B.1.427 (SARS-CoV-2)
[5] = target: SARS-CoV-2 spike (S) protein, variant B.1.429 (SARS-CoV-2)
[6] = target: SARS-CoV-2 spike (S) protein, variant B.1.525 (SARS-CoV-2)
[7] = target: SARS-CoV-2 spike (S) protein, variant B.1.526 (SARS-CoV-2)
[8] = target: SARS-CoV-2 spike (S) protein, variant B.1.617.1 (SARS-CoV-2)
[9] = target: SARS-CoV-2 spike (S) protein, variant B.1.617.2 (SARS-CoV-2)
[10] = target: SARS-CoV-2 spike (S) protein, variant B.1.621 (SARS-CoV-2)
[11] = target: SARS-CoV-2 spike (S) protein, variant BA.1 (SARS-CoV-2)
[12] = target: SARS-CoV-2 spike (S) protein, variant BA.2.86 (SARS-CoV-2) (UniProt P0DTC2)
[13] = target: SARS-CoV-2 spike (S) protein, variant BA.2.86 (SARS-CoV-2)
[14] = target: SARS-CoV-2 spike (S) protein, variant BA.4/5 (SARS-CoV-2)
[15] = target: SARS-CoV-2 spike (S) protein, variant CH.1.1 (SARS-CoV-2) (UniProt P0DTC2)
[16] = target: SARS-CoV-2 spike (S) protein, variant CH.1.1 (SARS-CoV-2)
[17] = target: SARS-CoV-2 spike (S) protein, variant EG.5.1 (SARS-CoV-2) (UniProt P0DTC2)
[18] = target: SARS-CoV-2 spike (S) protein, variant EG.5.1 (SARS-CoV-2)
[19] = target: SARS-CoV-2 spike (S) protein, variant JD.1.1 (SARS-CoV-2)
[20] = target: SARS-CoV-2 spike (S) protein, variant JN.1 (SARS-CoV-2) (UniProt P0DTC2)
[21] = target: SARS-CoV-2 spike (S) protein, variant JN.1 (SARS-CoV-2)
[22] = target: SARS-CoV-2 spike (S) protein, variant KP.2 (SARS-CoV-2) (UniProt P0DTC2)
[23] = target: SARS-CoV-2 spike (S) protein, variant KP.2.3 (SARS-CoV-2) (UniProt P0DTC2)
[24] = target: SARS-CoV-2 spike (S) protein, variant KP.3 (SARS-CoV-2) (UniProt P0DTC2)
[25] = target: SARS-CoV-2 spike (S) protein, variant KP.3.1.1 (SARS-CoV-2) (UniProt P0DTC2)
[26] = target: SARS-CoV-2 spike (S) protein, variant LB.1 (SARS-CoV-2) (UniProt P0DTC2)
[27] = target: SARS-CoV-2 spike (S) protein, variant P.1 (SARS-CoV-2)
[28] = target: SARS-CoV-2 spike (S) protein, variant P.2 (SARS-CoV-2)
[29] = target: SARS-CoV-2 spike (S) protein, variant XBB (SARS-CoV-2)
[30] = target: SARS-CoV-2 spike (S) protein, variant XBB.1.16.6 (SARS-CoV-2)
[31] = target: SARS-CoV-2 spike (S) protein, variant XBB.1.5 (SARS-CoV-2)
[32] = target: SARS-CoV-2 spike (S) protein, variant XBB.2.3.2 (SARS-CoV-2)
[33] = target: SARS-CoV-2 spike (S) protein, variant XEC (SARS-CoV-2) (UniProt P0DTC2)
[34] = target: SARS-CoV-2 spike protein, variant KP.2 (SARS-CoV-2)
[35] = target: SARS-CoV-2 spike protein, variant KP.3 (SARS-CoV-2)

ADG20 (antibody) was tested. Which neutralization IC50 [1] did it give?
The neutralization IC50 was 0.019 nM.

And the neutralization IC80 [1]?
The neutralization IC80 was 0.065 nM.

What about the neutralization IC50 [2] of the same substance?
Its neutralization IC50 is 0.106 nM.

And the neutralization IC80 [2]?
Its neutralization IC80 is 0.424 nM.

What about the neutralization IC50 [3] of the same substance?
The neutralization IC50 was 0.011 nM.

And the neutralization IC80 [3]?
Its neutralization IC80 is 0.05 nM.

What about the neutralization IC50 [4] of the same substance?
Its neutralization IC50 is 0.072 nM.

What about the neutralization IC80 [4] of the same substance?
Its neutralization IC80 is 0.162 nM.

What about the neutralization IC50 [5] of the same substance?
Its neutralization IC50 is 0.014 nM.

And the neutralization IC80 [5]?
Its neutralization IC80 is 0.061 nM.

What about the neutralizing activity IC50 [6] of the same substance?
The neutralizing activity IC50 was 0.019 nM.

And the neutralizing activity IC80 [6]?
Its neutralizing activity IC80 is 0.101 nM.

What about the neutralizing activity IC50 [7] of the same substance?
The neutralizing activity IC50 was 0.019 nM.

And the neutralizing activity IC80 [7]?
The neutralizing activity IC80 was 0.081 nM.

What about the neutralization IC50 [8] of the same substance?
Its neutralization IC50 is 0.015 nM.

What about the neutralization IC80 [8] of the same substance?
Its neutralization IC80 is 0.071 nM.

What about the neutralizing activity IC50 [9] of the same substance?
Its neutralizing activity IC50 is 0.11 nM.

What about the neutralizing activity IC80 [9] of the same substance?
Its neutralizing activity IC80 is 0.118 nM.

What about the neutralizing activity IC50 [10] of the same substance?
Its neutralizing activity IC50 is 0.026 nM.

And the neutralizing activity IC80 [10]?
The neutralizing activity IC80 was 0.131 nM.

And the neutralizing activity IC50 [11]?
The neutralizing activity IC50 was 13.9 nM.

And the neutralizing activity IC80 [11]?
Its neutralizing activity IC80 is greater than 67 nM.

And the neutralizing activity IC50 (µg/ml (caption; values match nM)) [12]?
The neutralizing activity IC50 (µg/ml (caption; values match nM)) was greater than 67.

And the neutralizing activity IC80 (µg/ml (caption; values match nM)) [12]?
The neutralizing activity IC80 (µg/ml (caption; values match nM)) was greater than 67.

What about the pseudovirus neutralization IC50 [13] of the same substance?
The pseudovirus neutralization IC50 was greater than 67 nM.

What about the pseudovirus neutralization IC80 [13] of the same substance?
The pseudovirus neutralization IC80 was greater than 67 nM.

What about the neutralizing activity IC50 [14] of the same substance?
Its neutralizing activity IC50 is greater than 67 nM.

And the neutralizing activity IC80 [14]?
Its neutralizing activity IC80 is greater than 67 nM.

And the neutralizing activity IC50 (µg/ml (caption; values match nM)) [15]?
The neutralizing activity IC50 (µg/ml (caption; values match nM)) was 13.7.

What about the neutralizing activity IC80 (µg/ml (caption; values match nM)) [15] of the same substance?
The neutralizing activity IC80 (µg/ml (caption; values match nM)) was greater than 67.

What about the neutralizing activity IC50 [16] of the same substance?
Its neutralizing activity IC50 is 13.7 nM.

And the neutralizing activity IC80 [16]?
The neutralizing activity IC80 was greater than 67 nM.

And the neutralizing activity IC50 (µg/ml (caption; values match nM)) [17]?
The neutralizing activity IC50 (µg/ml (caption; values match nM)) was greater than 67.

What about the neutralizing activity IC80 (µg/ml (caption; values match nM)) [17] of the same substance?
The neutralizing activity IC80 (µg/ml (caption; values match nM)) was greater than 67.

And the pseudovirus neutralization IC50 [18]?
The pseudovirus neutralization IC50 was greater than 67 nM.

What about the pseudovirus neutralization IC80 [18] of the same substance?
Its pseudovirus neutralization IC80 is greater than 67 nM.

What about the pseudovirus neutralization IC50 [19] of the same substance?
Its pseudovirus neutralization IC50 is greater than 67 nM.

What about the pseudovirus neutralization IC80 [19] of the same substance?
The pseudovirus neutralization IC80 was greater than 67 nM.

And the neutralizing activity IC50 (µg/ml (caption; values match nM)) [20]?
Its neutralizing activity IC50 (µg/ml (caption; values match nM)) is greater than 67.

And the neutralizing activity IC80 (µg/ml (caption; values match nM)) [20]?
Its neutralizing activity IC80 (µg/ml (caption; values match nM)) is greater than 67.

What about the pseudovirus neutralization IC50 [21] of the same substance?
Its pseudovirus neutralization IC50 is greater than 67 nM.

And the pseudovirus neutralization IC80 [21]?
The pseudovirus neutralization IC80 was greater than 67 nM.

What about the neutralizing activity IC50 (µg/ml (caption; values match nM)) [22] of the same substance?
Its neutralizing activity IC50 (µg/ml (caption; values match nM)) is greater than 67.

What about the neutralizing activity IC80 (µg/ml (caption; values match nM)) [22] of the same substance?
The neutralizing activity IC80 (µg/ml (caption; values match nM)) was greater than 67.

What about the neutralizing activity IC50 (µg/ml (caption; values match nM)) [23] of the same substance?
The neutralizing activity IC50 (µg/ml (caption; values match nM)) was greater than 67.

And the neutralizing activity IC80 (µg/ml (caption; values match nM)) [23]?
Its neutralizing activity IC80 (µg/ml (caption; values match nM)) is greater than 67.

And the neutralizing activity IC50 (µg/ml (caption; values match nM)) [24]?
Its neutralizing activity IC50 (µg/ml (caption; values match nM)) is greater than 67.

What about the neutralizing activity IC80 (µg/ml (caption; values match nM)) [24] of the same substance?
Its neutralizing activity IC80 (µg/ml (caption; values match nM)) is greater than 67.

And the neutralizing activity IC50 (µg/ml (caption; values match nM)) [25]?
The neutralizing activity IC50 (µg/ml (caption; values match nM)) was greater than 67.

And the neutralizing activity IC80 (µg/ml (caption; values match nM)) [25]?
The neutralizing activity IC80 (µg/ml (caption; values match nM)) was greater than 67.

What about the neutralizing activity IC50 (µg/ml (caption; values match nM)) [26] of the same substance?
Its neutralizing activity IC50 (µg/ml (caption; values match nM)) is greater than 67.

What about the neutralizing activity IC80 (µg/ml (caption; values match nM)) [26] of the same substance?
Its neutralizing activity IC80 (µg/ml (caption; values match nM)) is greater than 67.

And the neutralizing activity IC50 [27]?
The neutralizing activity IC50 was 0.021 nM.

And the neutralizing activity IC80 [27]?
Its neutralizing activity IC80 is 0.117 nM.

What about the neutralization IC50 [28] of the same substance?
Its neutralization IC50 is 0.034 nM.

What about the neutralization IC80 [28] of the same substance?
Its neutralization IC80 is 0.121 nM.

What about the neutralizing activity IC50 [29] of the same substance?
The neutralizing activity IC50 was 10.6 nM.

And the neutralizing activity IC80 [29]?
The neutralizing activity IC80 was greater than 67 nM.

And the neutralizing activity IC50 [30]?
The neutralizing activity IC50 was greater than 67 nM.

And the neutralizing activity IC80 [30]?
Its neutralizing activity IC80 is greater than 67 nM.

What about the neutralizing activity IC50 [31] of the same substance?
The neutralizing activity IC50 was greater than 67 nM.

What about the neutralizing activity IC80 [31] of the same substance?
The neutralizing activity IC80 was greater than 67 nM.

And the neutralizing activity IC50 [32]?
Its neutralizing activity IC50 is greater than 67 nM.

And the neutralizing activity IC80 [32]?
Its neutralizing activity IC80 is greater than 67 nM.

And the neutralizing activity IC50 (µg/ml (caption; values match nM)) [33]?
Its neutralizing activity IC50 (µg/ml (caption; values match nM)) is greater than 67.

What about the neutralizing activity IC80 (µg/ml (caption; values match nM)) [33] of the same substance?
Its neutralizing activity IC80 (µg/ml (caption; values match nM)) is greater than 67.

What about the IC50 (nM), pseudovirus neutralization [34] of the same substance?
The IC50 (nM), pseudovirus neutralization was greater than 67 nM.

And the IC50 (nM), pseudovirus neutralization [35]?
The IC50 (nM), pseudovirus neutralization was greater than 67 nM.
